From article PMC9886862

Biological target: HoxG, large subunit of the membrane-bound [NiFe]-hydrogenase (MBH) from Cupriavidus necator, isolated, with N-terminal Strep-tag II (Cupriavidus necator) (UniProt P31891)
Experiment: SEC; HoxG at higher concentrations (series 0.5, 2.5, 12.5 and 60 mg/ml); Superdex 200 Increase 10/300 GL; 50 mM KiPO4, 150 mM NaCl, pH 7.4, 4 °C; sizes from a calibration curve of reference proteins

stoichiometry N: 2
Substance: HoxG, large subunit of the membrane-bound [NiFe]-hydrogenase (MBH) from Cupriavidus necator, isolated, with N-terminal Strep-tag II (from UniProt P31891 1-618) (natural protein)
